The values below come from patent US20180030119A1.

Assay [1] concerns the target F protein on intact RSV particles (Example 11, strain not stated) (RSV, strain not stated). Put plainly: competition ELISA: RSV particles pre-incubated with control IgG at 20 ug/mL, plates coated with palivizumab; this is the reference set to 100 %. In general terms: In an ELISA, binding on a coated surface is turned into a signal by an enzyme label.
Assay [2] has the same target. Description: competition ELISA: RSV particles pre-incubated with control IgG at 20 ug/mL, plates coated with AR201; this is the reference set to 100 %.
Assay [3] deals with F protein of RSV reference strain RSV-B (ATCC VR 1580), on virus (RSV-B (ATCC VR 1580)) (UniProt P13843). Description: cell-based or functional assay.
F protein of RSV reference strain RSV-B (ATCC VR 1580), on virus (RSV-B (ATCC VR 1580)), sequence (P13843 26-574): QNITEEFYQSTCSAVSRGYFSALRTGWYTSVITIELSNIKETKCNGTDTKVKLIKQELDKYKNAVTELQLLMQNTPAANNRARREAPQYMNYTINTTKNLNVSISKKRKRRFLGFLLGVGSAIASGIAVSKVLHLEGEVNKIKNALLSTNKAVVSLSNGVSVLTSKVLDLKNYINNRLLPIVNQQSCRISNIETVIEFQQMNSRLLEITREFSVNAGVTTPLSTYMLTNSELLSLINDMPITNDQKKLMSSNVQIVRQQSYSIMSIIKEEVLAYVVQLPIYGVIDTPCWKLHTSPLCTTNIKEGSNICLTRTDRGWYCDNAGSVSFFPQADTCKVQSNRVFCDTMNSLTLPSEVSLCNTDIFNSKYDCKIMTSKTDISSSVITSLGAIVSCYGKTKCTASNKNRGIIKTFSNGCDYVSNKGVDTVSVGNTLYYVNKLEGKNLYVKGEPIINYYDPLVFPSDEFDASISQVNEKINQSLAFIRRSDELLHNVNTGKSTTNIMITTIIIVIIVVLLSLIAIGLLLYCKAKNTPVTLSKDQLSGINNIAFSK
For assay [4], the target named is F protein of RSV reference strain RSV-A Long (ATCC VR-26), on virus (RSV-A Long (ATCC VR-26)) (UniProt P12568). Put plainly: cell-based or functional assay.
F protein of RSV reference strain RSV-A Long (ATCC VR-26), on virus (RSV-A Long (ATCC VR-26)), sequence (P12568 26-574): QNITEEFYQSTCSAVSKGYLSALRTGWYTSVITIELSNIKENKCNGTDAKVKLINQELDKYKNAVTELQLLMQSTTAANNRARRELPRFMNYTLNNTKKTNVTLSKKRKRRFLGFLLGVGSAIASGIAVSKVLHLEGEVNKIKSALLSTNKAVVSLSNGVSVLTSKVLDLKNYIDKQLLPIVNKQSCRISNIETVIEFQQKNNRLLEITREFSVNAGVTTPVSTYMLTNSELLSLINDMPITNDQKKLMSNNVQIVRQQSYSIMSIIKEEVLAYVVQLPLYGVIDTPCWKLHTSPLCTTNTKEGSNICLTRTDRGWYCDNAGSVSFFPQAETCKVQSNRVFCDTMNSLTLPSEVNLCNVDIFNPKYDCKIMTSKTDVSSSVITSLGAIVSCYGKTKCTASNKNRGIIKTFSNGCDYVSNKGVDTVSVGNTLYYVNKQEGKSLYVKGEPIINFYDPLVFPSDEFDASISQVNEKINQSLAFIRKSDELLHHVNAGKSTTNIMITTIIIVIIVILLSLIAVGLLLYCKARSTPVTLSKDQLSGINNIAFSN
Assay [5] concerns the target F protein on intact RSV particles (Example 11, strain not stated) (RSV, strain not stated). Description: competition ELISA: RSV particles pre-incubated with inhibiting mAb at 20 ug/mL, then added to plates coated with AR201 (competitor).
Assay [6] has the same target. Put plainly: competition ELISA: RSV particles pre-incubated with inhibiting mAb at 20 ug/mL, then added to plates coated with palivizumab (competitor, self).

For “unrelated fully human monoclonal IgG1 antibody (control)”, the binding of RSV to the coated mAb, % of binding with control IgG in assay [1] and in assay [2] was 100% each time. The Estimated half-maximal effective antibody concentration (ng/mL), plaque neutralisation on Vero cells in assay [3] and in assay [4] was > 1000 ng/mL in each case.

With palivizumab (antibody), the binding of RSV to the coated mAb, % of binding with control IgG came to 29.2% in assay [5] and 35.3% in assay [6]. The Estimated half-maximal effective antibody concentration (ng/mL), plaque neutralisation on Vero cells in assay [3] was 200 ng/mL; in assay [4], 100 ng/mL.
